Test results reported in patent US20040049009A1, “Methods for improving the antagonistic/agonistic properties of peptidic antagonists/agonists of the corticotropin-releasing factor receptor (crfr)” (published 2004).
Ends that are not written are not given here.

Assays:
[1] = molecular target: T1, rat CRF receptor, type 1 (rat, UniProt P35353); assay: SPA competition with 0.05 nM [125I-Tyr0]h/rCRF, HEK-293 membranes; 95% CI (0.06-0.51)
[2] = molecular target: T1, rat CRF receptor, type 1; assay: SPA competition with 0.05 nM [125I-Tyr0]h/rCRF, HEK-293 membranes; 95% CI (0.15-0.49)

Q: With QGPPISIDLSLELLRKMIEIARAEKEKQQAANNRLLLDTI (ends and bridges not checked) [[Ala^21,23Arg^22]Svg] as the binder, how does the IC50 [1] read?
A: 0.29 nM

Q: With QGPPISIDLSLELLRKMIEIAKQEKEKQQAANNRLLLDTI (ends and bridges not checked) [[Ala^21]Svg] as the binder, how does the IC50 [2] read?
A: 0.32 nM
